Patent publication US8993518B2, “Compositions and methods for treating antiphospholipid syndrome” (Beth Israel Deaconess Medical Center, Inc., priority 2010, dated 2015)

How the values were obtained:
[1] = biological target: T1, β2GPI/anti-β2GPI antibody complexes (β2GPI in normal human serum) (Homo sapiens, UniProt P02749); assay: Inhibition of binding of β2GPI in human serum to cardiolipin in the presence of anti-β2GPI antibodies; settings: 0.04% human serum, read-out: half-maximal inhibition of binding of β2GPI in serum to cardiolipin
T1 construct: pooled normal human serum (Innovative Research); tissue Innovative Research; host or cells: pooled normal human serum
T1 sequence (P02749 20-345): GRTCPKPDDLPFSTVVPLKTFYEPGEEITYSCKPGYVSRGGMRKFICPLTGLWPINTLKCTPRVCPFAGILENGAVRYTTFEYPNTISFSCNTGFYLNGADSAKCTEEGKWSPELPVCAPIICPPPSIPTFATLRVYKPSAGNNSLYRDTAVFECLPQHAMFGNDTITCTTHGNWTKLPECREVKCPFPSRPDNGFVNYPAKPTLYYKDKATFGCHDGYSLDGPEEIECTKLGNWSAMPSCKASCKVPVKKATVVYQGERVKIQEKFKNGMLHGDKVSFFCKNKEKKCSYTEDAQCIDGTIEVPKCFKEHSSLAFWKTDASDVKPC
Experimental: (§1) Cardiolipin-coated 96 well plates available as part of the ImmunoWELL cardiolipin IgG test kit (GenBio) were blocked with 0.5% of skim milk and 2% BSA in 20 mM Tris, 100 mM NaCl, 2 mM CaCl2, pH 7.4. The assay buffer contained 20 mM Tris, 100 mM NaCl, 2 mM CaCl2, pH 7.4 with 2% BSA and the wash buffer was 20 mM Tris, 100 mM NaCl, 2 mM CaCl2, pH 7.4. When the purified β2GPI (Haematologic Technologies, Inc.) was used in experiments, 27 mM glycine was added to the assay buffer to account for glycine present in the stock solution of β2GPI. β2GPI bound to cardiolipin was detected with peroxidase-conjugated anti-β2GPI antibodies (Cedarlane, CL20021HP, 2 mg/ml) diluted 1:2500. To detect β2GPI-DV bound to cardiolipin, we used peroxidase-conjugated anti-HA antibody (Abcam, ab1265, 1 mg/ml) directed to HA epitope tag at the N-terminus of β2GPI-DV diluted 1:2500. The peroxidase activity of the bound antibodies was detected using 2-2′-azino-di-[3-ethylbenzthizzoline]sulfonate (ABTS) chromogenic reagent by measuring OD at 405 nm. […] The fits of the raw data and the titration data points were then normalized to the maximum binding determined from the fit to facilitate comparison.
(§2) […] Then, samples were incubated on wells for an additional 1 hour and, after washing, the bound β2GPI/anti-β2GPI or β2GPI-DV/anti-tag antibody complexes were detected.

[2] = biological target: T2, β2GPI purified from human plasma (Homo sapiens, UniProt P02749); assay: Inhibition of binding of purified β2GPI to cardiolipin in the absence of anti-β2GPI antibodies; settings: in the absence of anti-β2GPI antibodies (FIG. 5)
T2 construct: We used β2GPI purified from human plasma available from Haematologic Technologies, Inc; purchased Haematologic Technologies, Inc; host or cells: human plasma
T2 sequence (P02749 20-345): T1 sequence (P02749 20-345)
Experimental: as §1, with “To detect β2GPI-DV bound to cardiolipin, we used peroxidase-conjugated anti-HA antibody (Abcam, ab1265, 1 mg/ml) directed to HA epitope tag at the N-terminus of β2GPI-DV diluted 1:2500.” left out
(§3) For the inhibition studies, increasing concentrations of A1 or A1-A1 were added to a constant amount of β2GPI (50 nM), normal human serum (1%) or β2GPI-DV (130 nM) and incubated for 1 hour at room temperature. […] Then, samples were incubated on wells for an additional 1 hour and, after washing, the bound β2GPI/anti-β2GPI or β2GPI-DV/anti-tag antibody complexes were detected.

[3] = biological target: T3, β2GPI/anti-β2GPI antibody complexes (β2GPI purified from human plasma) (Homo sapiens, UniProt P02749); assay: Inhibition of binding of purified β2GPI to cardiolipin in the presence of anti-β2GPI antibodies; settings: 10 nM purified β2GPI, one-site inhibition fit, read-out: half-maximal inhibition of binding of purified β2GPI to cardiolipin
T3 construct: We used β2GPI purified from human plasma available from Haematologic Technologies, Inc; purchased Haematologic Technologies, Inc; host or cells: human plasma
T3 sequence (P02749 20-345): T1 sequence (P02749 20-345)
Experimental: as §1, §2

[4] = biological target: T4, β2GPI in normal human serum (Homo sapiens, UniProt P02749); assay: Inhibition of binding of β2GPI in human serum to cardiolipin in the absence of anti-β2GPI antibodies; settings: 1% human serum, read-out: concentration of inhibitor at 50% inhibition of β2GPI in serum binding to cardiolipin
T4 construct: pooled normal human serum (Innovative Research); tissue Innovative Research; host or cells: pooled normal human serum
T4 sequence (P02749 20-345): T1 sequence (P02749 20-345)
Experimental: as §1, with “To detect β2GPI-DV bound to cardiolipin, we used peroxidase-conjugated anti-HA antibody (Abcam, ab1265, 1 mg/ml) directed to HA epitope tag at the N-terminus of β2GPI-DV diluted 1:2500.” left out
as §3

[5] = biological target: T5, domain V of β2GPI (Homo sapiens, UniProt P02749); settings: Lee et al., Structure 18:366-376, 2010; read-out: affinity of A1 for domain V of β2GPI; cited from earlier work
T5 sequence (P02749 263-345 limits assumed): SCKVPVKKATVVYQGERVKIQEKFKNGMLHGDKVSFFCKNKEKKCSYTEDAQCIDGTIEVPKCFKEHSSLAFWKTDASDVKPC

[6] = biological target: T6, dimeric β2GPI-DV/anti-tag antibody complexes (Homo sapiens, UniProt P02749); assay: Inhibition of binding of β2GPI-DV to cardiolipin in the presence of dimerization (anti-tag) antibodies; settings: 30 nM β2GPI-DV, read-out: half-maximal inhibition of binding of β2GPI-DV to cardiolipin
T6 construct: Domain V of β2GPI (residues 244-326), was subcloned into a pET15b vector (Novagen); histidine tag followed by TEV protease site (N, cleaved yes); made in house
T6 sequence (P02749 263-345): T5 sequence (P02749 263-345 limits assumed)
Experimental: as §1, §2

[7] = biological target: T7, domain V of β2GPI (β2GPI-DV) (Homo sapiens, UniProt P02749); assay: Inhibition of binding of isolated domain V of β2GPI to cardiolipin in the absence of antibodies; settings: in the absence of dimerization antibodies, read-out: concentration at half-maximal inhibition of binding of domain V to cardiolipin
T7 construct: Domain V of β2GPI (residues 244-326), was subcloned into a pET15b vector (Novagen); histidine tag followed by TEV protease site (N, cleaved yes); made in house
T7 sequence (P02749 263-345): T5 sequence (P02749 263-345 limits assumed)
Experimental: as §1, with “To detect β2GPI-DV bound to cardiolipin, we used peroxidase-conjugated anti-HA antibody (Abcam, ab1265, 1 mg/ml) directed to HA epitope tag at the N-terminus of β2GPI-DV diluted 1:2500.” left out
as §3

[8] = Binding of purified β2GPI to cardiolipin-coated surface; set-up: species or system human; settings: read-out: half-maximal binding of purified β2GPI to cardiolipin
Experimental: as §1, with “To detect β2GPI-DV bound to cardiolipin, we used peroxidase-conjugated anti-HA antibody (Abcam, ab1265, 1 mg/ml) directed to HA epitope tag at the N-terminus of β2GPI-DV diluted 1:2500.” left out
(§4) For the binding studies, 50 μl of increasing concentrations of either β2GPI (Haematologic Technologies, Inc.), pooled normal human serum (Innovative Research), or the purified recombinant β2GPI-DV were applied to wells and incubated for 1 hour at room temperature. […] Then, the samples were applied to cardiolipin, incubated for 1 hour, washed, and bound β2GPI or β2GPI-DV was detected.

[9] = Binding of β2GPI in normal human serum to cardiolipin-coated surface
Experimental: as §1, with “To detect β2GPI-DV bound to cardiolipin, we used peroxidase-conjugated anti-HA antibody (Abcam, ab1265, 1 mg/ml) directed to HA epitope tag at the N-terminus of β2GPI-DV diluted 1:2500.” left out
as §4

[10] = Binding of β2GPI-DV to cardiolipin-coated surface; settings: read-out: binding of β2GPI-DV to cardiolipin, one-site model fit
Experimental: as §1, with “To detect β2GPI-DV bound to cardiolipin, we used peroxidase-conjugated anti-HA antibody (Abcam, ab1265, 1 mg/ml) directed to HA epitope tag at the N-terminus of β2GPI-DV diluted 1:2500.” left out
as §4

[11] = in the absence of anti-β2GPI antibodies
[12] = in the presence of anti-β2GPI antibodies

Molecule: A1: Monomeric first LA module, fragment of mouse ApoER2 (residues 12-47 of the mature protein)
- IC50 [1]: 218 ± 21 µM
- inhibition of binding of purified β2GPI to cardiolipin [2]: only weakly inhibited
- IC50 [3]: 191 ± 34 µM
- IC50 [4]: 176 ± 37 µM
- Kd [5]: 1000 µM
- IC50 [6]: 204 ± 33 µM
- IC50 [7]: 188 ± 44 µM

B1: β2GPI: Beta2-glycoprotein I, in pooled normal human serum or purified from human plasma (Haematologic Technologies, Inc.) (protein)
chain: T1 sequence (P02749 20-345)
- EC50 [8, 11]: 0.043 ± 0.004 µM
- EC50 [8, 12]: 0.0024 ± 0.0004 µM
- half-maximal binding of β2GPI in serum to cardiolipin [9, 11]: 0.40±0.05 % of serum
- half-maximal binding of β2GPI in serum to cardiolipin [9, 12]: 0.028±0.004 % of serum

B2: A1-A1: Dimeric inhibitor: two A1 (LA) modules from ApoER2 connected by a flexible Gly-Ser-Ser-Gly linker, SEQ ID NO: 1 (protein)
chain: AECEEDQFRCRNERCIPLVWRCDEDNDCSDNSDEDDCGSSGCEEDQFRCRNERCIPLVWRCDEDNDCSDNSDEDDCEA
- inhibition of binding of purified β2GPI to cardiolipin [2]: only weakly inhibited

B3: β2GPI-DV: Recombinant isolated domain V of β2GPI (residues 244-326), with an N-terminal HA tag in the binding assays (protein)
chain: YPYDVPDYASCKVPVKKATVVYQGERVKIQEKFKNGMLHGDKVSFFCKNKEKKCSYTEDAQCIDGTIEVPKCFKEHSSLAFWKTDASDVKPC
- EC50 ([10]; in the absence of anti-tag antibodies): 0.112 ± 0.021 µM
- EC50 ([10]; in the presence of anti-tag antibodies): 0.019 ± 0.001 µM
